Binding and binding signal data for eleven substances are collected here from article PMC10826351.

The first series deals with T1, PbtAC (PbtA C-terminal domain) (Vibrio anguillarum RV22) (UniProt A0A289GIJ0).
T1 sequence: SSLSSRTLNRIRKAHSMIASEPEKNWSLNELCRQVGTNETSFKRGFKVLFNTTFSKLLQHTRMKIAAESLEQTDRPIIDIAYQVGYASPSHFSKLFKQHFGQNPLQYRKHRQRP
As to the kind of experiment: EMSA. The settings on record: 1 mM Tris pH 7.5, 155 mM KCl, 0.1 mM DTT, 5% glycerol, 5 mM MgCl2, 1 mM EDTA, 0.3 mg/mL BSA, 30 min at 20 C. On the technique in general: In EMSA bound probe runs differently from free probe, usually more slowly.
Regarding “AAAAATAGACGACCCGATCTATTCAAGCTTGTTTAAAATAACAATCATAAACGTCGATTCACGCTCTTTTTATGCCTTATTCAGTTAGCAGGTAAAAGACAGAATCGGCACTATAAGTTCAATATGGATACCACAG (double strand) [Probe 5 (frpA)]”, the binding entry is listed as “binds”.
Same read-out and setting: the value for “TAAAACAAAACCAGAAAATAAAATAAAAATCAACAAAATTAAATGCTTAATTTTAATTAAGTTC (double strand) [Probe 4 (frpA, 6xAAAAT low complexity region)]” was “no binding”.

The series is the same for the next values; noted with them: 1 mM Tris pH 7.5, 155 mM KCl, 0.1 mM DTT, 5% glycerol, 5 mM MgCl2, 1 mM EDTA, 0.3 mg/mL BSA, 30 min at 20 C, scale: free probe band ratio to no-protein control.
Turning to “TATTGAGCAATTGAGGATTAATGAATGTGGCCACTAATATACTAATACCGATTGCTGAGTGGTGGGCTAGTTACGACTAAACGCGACGATTTTATACCTAATTGCGTTAGCGATGGCATGCATATTCAGCAAAAATAGCCTCCATTTATG (double strand) [Probe 12 (frpC)]”, the binding signal was 0.7.

A further series has as its system PbtAC (PbtA C-terminal domain) (Vibrio anguillarum RV22). Briefly: EMSA. The settings on record: 1 mM Tris pH 7.5, 155 mM KCl, 0.1 mM DTT, 5% glycerol, 5 mM MgCl2, 1 mM EDTA, 0.3 mg/mL BSA, 30 min at 20 C, scale: free probe band ratio to no-protein control.
Turning to LPS wzi(ab) promoter (P4), the binding signal was determined as 0.26.
Take PfrpA (Probe 1): the binding signal worked out at 0.49.
Turning to PfrpC (Probe 9), the binding signal amounted to 0.41.
hcp1 promoter (P5): the binding signal worked out at 0.74.
Still for that read-out and setting: the figure for hcp2 promoter (P6) is 0.28; for vanT promoter (P3) it is 0.81.
Same read-out and setting: the figure for vgrG promoter (P2?) is 0.09; for vipA promoter (P1?) it is 0.2.
